# B1: alkaline phosphatase (AP)-conjugated Sema3A WT (ligand, not shown: large carriers)
# chain: NYANGKNNVPRLKLSYKEMLESNNVITFNGLANSSSYHTFLLDEERSRLYVGAKDHIFSFNLVNIKDFQKIVWPVSYTRRDECKWAGKDILKECANFIKVLEAYNQTHLYACGTGAFHPICTYIEVGHHPEDNIFKLQDSHFENGRGKSPYDPKLLTASLLIDGELYSGTAADFMGRDFAIFRTLGHHHPIRTEQHDSRWLNDPRFISAHLIPESDNPEDDKVYFFFRENAIDGEHSGKATHARIGQICKNDFGGHRSLVNKWTTFLKARLICSVPGPNGIDTHFDELQDVFLMNSKDPKNPIVYGVFTTSSNIFKGSAVCMYSMSDVRRVFLGPYAHRDGPNYQWVPYQGRVPYPRPGTCPSKTFGGFDSTKDLPDDVITFARSHPAMYNPVFPINNRPIMIKTDVNYQFTQIVVDRVDAEDGQYDVMFIGTDVGTVLKVVSVPKETWHDLEEVLLEEMTVFREPTTISAMELSTKQQQLYIGSTAGVAQLPLHRCDIYGKACAECCLARDPYCAWDGSSCSRYFPTAKRRTRRQDIRNGDPLTHCSDLQHHDNHHGPSLEERIIYGVENSSTFLECSPKSQRALVYWQFQRRNEDRKEEIRMGDHIIRTEQGLLLRSLQKKDSGNYLCHAVEHGFMQTLLKVTLEVIDTEHLEELLHKDDDGDGSKIKEMSSSMTPSQKVWYRDFMQLINHPNLNTMDEFCEQVWKRDRKQRRQRPGHSQGSSNKWKHMQESKKGRNRRTHEFERAPRSV
# B2: mouse Fc-tagged Sema3A A106K ΔIg-b (Fc fusion)
# chain: NYANGKNNVPRLKLSYKEMLESNNVITFNGLANSSSYHTFLLDEERSRLYVGAKDHIFSFNLVNIKDFQKIVWPVSYTRRDECKWKGKDILKECANFIKVLEAYNQTHLYACGTGAFHPICTYIEVGHHPEDNIFKLQDSHFENGRGKSPYDPKLLTASLLIDGELYSGTAADFMGRDFAIFRTLGHHHPIRTEQHDSRWLNDPRFISAHLIPESDNPEDDKVYFFFRENAIDGEHSGKATHARIGQICKNDFGGHRSLVNKWTTFLKARLICSVPGPNGIDTHFDELQDVFLMNSKDPKNPIVYGVFTTSSNIFKGSAVCMYSMSDVRRVFLGPYAHRDGPNYQWVPYQGRVPYPRPGTCPSKTFGGFDSTKDLPDDVITFARSHPAMYNPVFPINNRPIMIKTDVNYQFTQIVVDRVDAEDGQYDVMFIGTDVGTVLKVVSVPKETWHDLEEVLLEEMTVFREPTTISAMELSTKQQQLYIGSTAGVAQLPLHRCDIYGKACAECCLARDPYCAWDGSSCSRYFPTGCKPCICTVPEVSSVFIFPPKPKDVLTITLTPKVTCVVVDISKDDPEVQFSWFVDDVEVHTAQTQPREEQFNSTFRSVSELPIMHQDWLNGKEFKCRVNSAAFPAPIEKTISKTKGRPKAPQVYTIPPPKEQMAKDKVSLTCMITDFFPEDITVEWQWNGQPAENYKNTQPIMDTDGSYFVYSKLNVQKSNWEAGNTFTCSVLHEGLHNHHTEKSLSHSPGK
# Legend:
# [1] = biological target: Plexin A4 receptor expressed on transfected COS-7 cells; assay: AP-conjugated ligand binding curves on COS-7 cells expressing Plexin A4, estimated affinity (FIG. 4E)
# [2] = biological target: Plexin A4 receptor expressed on transfected COS-7 cells; assay: AP-conjugated ligand on COS-7 cells expressing Plexin A4, cell-bound AP activity with p-nitrophenyl phosphate, Scatchard plot (FIG. 4C)
# [3] = biological target: Plexin A4 receptor expressed on transfected COS-7 cells; assay: cell-binding assay: AP-conjugated ligand on COS-7 cells expressing Plexin A4, p-nitrophenyl phosphate, absorbance at 405 nm [cont. 1). B]
# [4] = biological target: Nrp1 expressed on transfected COS cells; assay: AP-conjugated ligand on COS cells expressing Nrp1, cell-bound AP activity with p-nitrophenyl phosphate, binding curve (FIG. 4D)
# [5] = biological target: PlexinA4 of human umbilical vein endothelial cells (human) (UniProt Q9HCM2); assay: cell-based or functional assay
# Chain of UniProt Q9HCM2 (Q9HCM2 24-1894): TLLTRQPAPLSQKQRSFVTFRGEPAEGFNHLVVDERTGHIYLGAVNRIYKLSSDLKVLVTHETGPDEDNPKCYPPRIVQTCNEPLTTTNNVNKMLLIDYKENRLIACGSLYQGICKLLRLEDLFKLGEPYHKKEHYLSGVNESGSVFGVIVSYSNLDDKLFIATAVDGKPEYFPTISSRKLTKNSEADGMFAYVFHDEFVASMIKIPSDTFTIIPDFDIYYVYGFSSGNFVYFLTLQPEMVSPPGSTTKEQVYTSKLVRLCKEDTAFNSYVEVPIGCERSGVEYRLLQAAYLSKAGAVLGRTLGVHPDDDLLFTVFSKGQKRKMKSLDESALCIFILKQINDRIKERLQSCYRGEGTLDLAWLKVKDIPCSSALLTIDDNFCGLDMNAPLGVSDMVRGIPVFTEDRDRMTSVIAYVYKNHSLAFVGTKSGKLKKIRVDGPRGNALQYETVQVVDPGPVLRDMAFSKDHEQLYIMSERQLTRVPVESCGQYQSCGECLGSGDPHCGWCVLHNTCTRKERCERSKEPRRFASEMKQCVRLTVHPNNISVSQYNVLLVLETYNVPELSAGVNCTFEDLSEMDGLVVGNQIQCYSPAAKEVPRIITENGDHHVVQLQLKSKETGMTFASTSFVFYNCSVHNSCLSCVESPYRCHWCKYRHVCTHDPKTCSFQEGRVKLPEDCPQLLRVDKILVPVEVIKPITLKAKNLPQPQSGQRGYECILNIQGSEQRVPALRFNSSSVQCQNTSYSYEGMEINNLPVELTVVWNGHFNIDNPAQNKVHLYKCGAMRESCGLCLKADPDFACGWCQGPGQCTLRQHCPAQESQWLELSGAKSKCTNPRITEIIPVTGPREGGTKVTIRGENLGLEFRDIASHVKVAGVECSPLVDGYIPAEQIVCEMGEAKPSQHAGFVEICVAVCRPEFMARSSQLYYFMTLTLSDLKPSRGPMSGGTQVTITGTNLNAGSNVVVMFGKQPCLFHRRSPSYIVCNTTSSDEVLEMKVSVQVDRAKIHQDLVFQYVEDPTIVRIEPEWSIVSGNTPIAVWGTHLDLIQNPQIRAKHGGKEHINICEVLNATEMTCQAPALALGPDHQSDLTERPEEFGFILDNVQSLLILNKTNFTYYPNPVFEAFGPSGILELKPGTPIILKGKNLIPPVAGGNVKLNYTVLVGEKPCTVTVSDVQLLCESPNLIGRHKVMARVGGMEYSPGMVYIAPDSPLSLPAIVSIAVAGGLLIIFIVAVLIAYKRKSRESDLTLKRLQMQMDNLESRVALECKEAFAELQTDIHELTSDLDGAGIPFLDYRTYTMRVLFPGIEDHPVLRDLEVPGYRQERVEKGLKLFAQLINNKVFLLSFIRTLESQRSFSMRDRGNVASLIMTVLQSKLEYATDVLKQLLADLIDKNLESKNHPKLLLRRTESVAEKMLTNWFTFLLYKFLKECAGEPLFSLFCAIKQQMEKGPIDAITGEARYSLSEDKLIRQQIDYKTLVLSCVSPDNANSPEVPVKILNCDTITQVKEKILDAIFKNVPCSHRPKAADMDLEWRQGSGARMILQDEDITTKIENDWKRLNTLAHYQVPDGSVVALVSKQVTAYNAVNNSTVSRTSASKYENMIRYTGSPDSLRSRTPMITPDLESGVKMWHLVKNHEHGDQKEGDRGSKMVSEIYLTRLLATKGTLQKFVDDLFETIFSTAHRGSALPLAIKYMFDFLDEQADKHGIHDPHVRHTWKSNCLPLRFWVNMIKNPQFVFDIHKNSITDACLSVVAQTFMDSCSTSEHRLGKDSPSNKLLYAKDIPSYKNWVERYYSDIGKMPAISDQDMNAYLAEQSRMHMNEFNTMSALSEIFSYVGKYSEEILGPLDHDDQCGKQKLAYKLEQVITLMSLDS
molecule,measurement,setting,value
alkaline phosphatase (AP)-conjugated mutant Sema3A ΔIg-b (from UniProt P05187 23-511) (ligand),Kd,[1],200 nM
alkaline phosphatase (AP)-conjugated mutant Sema3A A106K ΔIg-b (from UniProt P05187 23-511) (ligand),Kd,[1],0.7 nM
same,Kd,[2],0.7 nM
same,EC50 (read off the curve),[3],0.5 nM
B1,Kd,[1],7 nM
same,Kd,[4],1.1 nM
B2,"Relative migration of ECs towards type I collagen at 3 h:45 m, 0.2 nM (xCELLigence)",[5],60 % of control
same,"Relative migration of ECs towards type I collagen at 3 h:45 m, 0.9 nM (xCELLigence)",[5],64 % of control
same,"Relative migration of ECs towards type I collagen at 3 h:45 m, 3.5 nM (xCELLigence)",[5],55 % of control
same,"activation of ERK 1/2 phosphorylation in ECs (Western blot, 15 minutes)",[5],3.9 fold

# Source: patent US20180030100A1
